Assay results reported in the supplement of paper PMC12636428.

These sequences were tested on Saccharomyces cerevisiae (assay: transcriptional activation domain activity (GFP:mCherry ratio, weighted mean of sorted bins, harmonized to initial dataset scale) (arbitrary fluorescence ratio units); higher = stronger transcriptional activation). Conditions: beta-estradiol 1 µM; induction time 4 h.
In short: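 After a 1:5 dilution into SC with 1 uM beta-estradiol and 4 hours at 30 °C, yeast diploids carrying a GFP reporter and URA3-integrated barcoded tiles were sorted into 8 bins by GFP:mCherry ratio. The tiles were fused to an estradiol-inducible synthetic transcription factor. Barcodes were sequenced, tiles below 50 reads were discarded, and activation activity was taken as the read-weighted mean of bin median fluorescence, averaged across barcodes and linearly mapped onto the initial dataset scale.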

Sequence	transcriptional activation domain activity
LFTSLLTSPFLFSLPLLSISASSFLIPPSPFHSLFLPLSLPFPLLYPFPSLFF	49800
LFVFLLFVLFLLVLFMLVLLLLFLPLLLLLPLLLWILWILILRLFFSFLDISD	36900
LFYFIFILFFFTLGDICFRFFYFMGPCFVLFKMVLLIFFSPFSFLHLSLSWVT	43100
LFYFTFSFFVRTAFITLPIYLFWFLYSYFWNYWTSYFPWNDLFLPAWPISRTR	39300
LFYLLLLYYYYYCTILYILLHIHYIYIIYLFFLFVYSIYLFFFYILLFIIYYS	52300
LFYNQVSKLLIINCYEASYMCVIYTVGSIGNIGSRCQNLRTGSTFKTLVKYID	54000
LGAIIYIYLCCHGSLTMVDLCTLLALNILNNVDGQCTRILCWWVSFAWCMYPG	58800
LGDQPHIPIPVAFRNIWSFLRVCTLEGFDAKEILPILFALSPGAQLRFIRCRS	70800
LGFIEIVRVCPRFGILFLCMALSFISIVVDLLSVTPVIPIGVINPFWKFAFVF	58100
LGFLYDLIPFFFCCLPFLPFLAPPLKKHLALFQFHPLLHLPLLLPFFFLYFRP	50200
LGGLSRERFFVYVFTSAFLWYFFPGYLFLALSWFSWVTWIWPDDPVVSQLFGY	39500
LGGNSGRATPGGGESRASTRKSKSKGAAKSRSRSPSRGRNRAGSKKKAGAAAT	38700
LGILLLLFDWRVLFNAAQMSCALHESCIALSVMKARNQEWKWWCLGSTYYVYE	44100
LGIRSILETAYRINRLTHMCLQHLLTRCNNLEPLELVGSVLFFLDKKLKRPPE	50300
LGLDSGYLWSGILYNLSVTISLYSLGMFWVCMSKDLQPFRPVPKFLCIKLIIF	53200
LGLDSGYLWSGILYNVSVTVSLYSLGMFWVCMSKDLQPFRPVPKFLCIKLIIF	62400
LGLLLVVSVRIVVTLFSLFFFILLLVALGLIILIIALIVKAIIIVVYFFFFFV	20400
LGLSIWTPWKDVYTRLPKRIYAKLLATAEMEVKYKPKVLVSQIWNAVIISMYR	61600
LGLTNLQLGDEMIGLGAVILIYVIARLILILLPLVALRSLPSGVFVDVNWSRY	57800
LGNISAERHVLNTLSKIPAAQLHDALLVLPFSSLPALFTFLAIWVRKQWNVTL	56000
LGQLLLLLLLLLLLLLLLLLLLLLLLLLLLLLLRRRRRRWWWWRRLLILRIRR	73200

Sequence	transcriptional activation domain activity
LGSCFLLSLVHPFFLLYYLYLRLLSLCFLYLRFVFFFCSPMSFFILLSIMSFL	60100
LGSIWKPLRNDLLFGTCFFLTRILYHNIMIFTFYYHLDFMFPVYTLLFILPLH	61100
LGSLTFLDNAFQLDLEFLLSSNMTMPSPLDTCFDFLFPFTQMPSLEPCTFPPV	138000
LGTEVVTLEDEIYYIWVRYYSIALLVFDTPNSHLCHSRNNLGQLVAVINVFLF	46300
LGTTLLIVVKMLLNWETIDCWGLIYKKMVIGQFMSEMYRIAAGGGKRRVPWAK	60800
LGVFGVALYVLSFFENFDSCHWCFHYDLWSPMAYILMRYSIEAILWSSRLALF	70600
LGVLLLLLLYANVVLLIYHAPTTRKPFDLAFIHAPVRAFMLLPLTILFPYSLF	57300
LGVSAGAGLYPLQDKKREEEEDGVRGFVREGLGDLSCFIGSSVPLTAKKVLEA	75700
LGVVFWCWCGLLGLKIQLYAGSYIKFRSVVIVMLIVLEIFEISINVSVCVIFH	53000
LGYQIVLLLPWTLFCYCWTLCVVIFSLVAMIIPPLGYVCTIFSVTSWRALARV	69800
LHAGAAADDARTGGGGGGGTGQGRAEGRDRGAEPGAVRGGEPHGRGRAEAGAH	8730
LHEQLESLMLRRLKRDVLTSLPTKSERILRVEMSALQTHFYKNILTKNFQALV	74100
LHFCHRLLSRISSLLFCFLFYCLDVLFLSLFLLCFFFPFFFFLFFLFLFQHFA	54800
LHFFLAFIFLLSAYFHVRGRDLTYYGVWPSMVVWGLDRFLRLLRIGVFNFRYI	42000
LHFLSIDITSPFLPLDILPDLWATMWPWIRLIDSYWDSLPTLHEWFPSIQIYT	57500
LHFMYVVAIKDRKAWVGYSAAELCMVGFWNLIVVWLKLLVPWRFFRLWALADG	61900
LHGFDWSEEDDMSDGLPFLKTDPNNNGFFGDGSLLCILRSIGFKPENYTNSNV	50300
LHGSIHEGLCRMLINIFIENLVLKEDVLLALCIQVLFPKEYITKGLMDAIKKD	13900
LHKRLEVTAYITCTRVIQRVVWFLLQGKYRLDYYWEEVWRALLNLLDFISNKI	71300
LHLCLQVTKAYLERFHKFDPADITVCCSSVMFHFACAMKVLYRLLLLDDPGWD	59900
LHLFGLVLVWVSYLLFWVFLLFSFVYPDWLLALFILRIILFLFSFSVILFYFI	47100

Sequence	transcriptional activation domain activity
LHLFTNIDILKYDYGHIREDHIWVCLMHFTKRSRVVRWLVKSIYRPLLLGGLR	77200
LHLMLQKLCFAATLRIATLPDKHPLHPFVKRVYRYLFLKSHRAPRHNLFEAFQ	55000
LHNRFGAFTPSKTPKSVFVVTYLGRVFITIMFCLVVVIAALTIKYSADSNNLY	9590
LHPAPSSPSSTPRRRAAASTTATRTPAPAPTRTRRCSSSTKPPTASSSTPPRR	57400
LHQFDHFGYQQVFSVRWMKKHLHDVSGGVMLHVIKYMANILSSLLAPMGYFEM	29600
LHQRVHEQGLYDCHYSNYFIDLLRYLVLLGLFVVSFYKEYYLVSSCFLGCFWH	57400
LHQSGITHVYYLVENYSKQILLSHFLLNDISFRGWIMLLRNMSFRSIRHCQST	54800
LHRLHLARVTVDKEGKLVSTTNMTILNLWLVWRGPMREDRLTIEITLFQAFVG	26400
LHRYPIIRRGVALQTGKGKRKRMYQLIVVGNGDGLVGYGEGKNEDMGMAASKS	28500
LHSFRRQNGFIRLNIWDLNPSPKILQLYLLTQTIKRYIVLCLLLNLGFTIAQC	60700
LHYIYVVAISKSLSRLTLSYYTPAQLAMIGYFNLHIIWLKLMIPWRFFRLWSL	43200
LIAGWCCLLSASCGIFYCIFRAIAIYVPEFNCRVVLWCFAILKVISILCHAAV	32700
LIALPCLMAFATICFAFVAWKLYGEFAWTIYKHISADLRLKRRYLTYQIYIAL	50200
LIFCVHMTVILFVILFCYLNRGFVPMTNGKYFYADFRISNTWGFITSLTLVLN	38100
LIFSLKVLVMLICIIMIEFYITYAVAVGYIYAVAILEPFRPQLAVAFTWIRPV	66600
LIFTSVHFLVFNIGDLLGRYLCLVPQLLLWDASKLLTLSLLRTFFIPLFLACN	38500
LIGCCVVYSLLSSFLLIFQCIPVSLAWNRWDGEHHGHCTNLVPLTWITALLNV	58900
LIGMDQDVLGRWSQVIGEKGEGSLFSLALGPHQSNWLVLIRQACLLLLRSVAA	51200
LIHFFRLYRSGHGPIRMFFLHIQALYNLFNLIFSWFALANLWLTFSIIIRLVP	70000
